In publication PMC4124035 (Nature structural & molecular biology, 2014):
Where two headings read alike, the source gives them in different places. Values belong to the molecule of their own block, whether it stands above or below them.

Key:
RPAP2 (1-334) = test: In vitro DiFMUP phosphatase assay; format: biochemical, human; conditions: 10 μM DiFMUP, 50 mM 3,3-dimethylglutaric acid pH 6.5, 37°C, fluorescence every 20 min for 2 hours
RPRD2 CID = target: T1, RPRD2 CID (Homo sapiens, UniProt Q5VT52); test: ITC binding of CTD peptides to RPRD2 CID; conditions: ratio of Kd values of Table 1
T1 sequence (Q5VT52 15-161): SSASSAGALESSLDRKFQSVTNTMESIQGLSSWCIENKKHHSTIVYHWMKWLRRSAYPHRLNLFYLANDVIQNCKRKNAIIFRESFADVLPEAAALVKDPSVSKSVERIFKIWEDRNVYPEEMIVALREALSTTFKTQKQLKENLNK

RPRD1B CID = target: T2, RPRD1B CID (Homo sapiens, UniProt Q9NQG5); test: ITC binding of CTD peptides to RPRD1B CID; conditions: ratio of Kd values of Table 1
T2 sequence (Q9NQG5 2-135): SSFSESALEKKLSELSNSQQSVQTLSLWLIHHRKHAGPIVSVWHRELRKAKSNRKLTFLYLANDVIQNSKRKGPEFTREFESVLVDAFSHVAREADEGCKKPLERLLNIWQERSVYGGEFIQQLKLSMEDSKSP

RPRD1A CID = target: T3, RPRD1A CID (Homo sapiens, UniProt Q96P16); test: ITC binding of CTD peptides to RPRD1A CID; conditions: ratio of Kd values of Table 1
T3 sequence (Q96P16 2-137): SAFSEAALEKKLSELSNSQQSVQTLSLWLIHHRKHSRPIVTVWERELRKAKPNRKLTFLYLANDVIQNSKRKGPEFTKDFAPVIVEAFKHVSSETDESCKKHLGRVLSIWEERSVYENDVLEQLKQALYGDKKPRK

RPAP2 [1] = test: Phosphatase assay with pNPP substrate; format: biochemical, human; conditions: unpublished data
RPAP2 [2] = test: In vitro phosphatase ELISA on biotinylated CTD peptides; format: biochemical, human; conditions: Supplementary Fig. 4d
[3] = target: RPRD1B coiled-coil domain (human) (UniProt Q9NQG5); test: AUC
[4] = target: RPRD1B coiled-coil domain (human) (UniProt Q9NQG5); test: AUC; remark: listed apart in the source
[5] = target: RPRD1B coiled-coil domain (solution experiments) (human) (UniProt Q9NQG5); test: AUC
[6] = target: RPRD1B CTD interaction domain (CID), residues 2-135 (human) (UniProt Q9NQG5); test: ITC
[7] = target: RPRD2 CTD interaction domain (CID), residues 15-161 (human) (UniProt Q5VT52); test: ITC
[8] = target: RPRD1A CTD interaction domain (CID), residues 2-137 (human) (UniProt Q96P16); test: ITC
RPRD1A CID R106A = target: T4, RPRD1A CID R106A (human, UniProt Q96P16 2-137, R106A); test: ITC
T4 sequence: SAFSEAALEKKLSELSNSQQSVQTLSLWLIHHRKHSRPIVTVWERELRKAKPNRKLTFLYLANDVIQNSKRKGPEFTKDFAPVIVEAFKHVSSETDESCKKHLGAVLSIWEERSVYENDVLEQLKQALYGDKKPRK

Molecule: Cc1cc(=O)oc2c(F)c(OP(=O)(O)O)c(F)cc12 [DiFMUP, 6,8-difluoro-4-methylumbelliferyl phosphate]
- dephosphorylation of the substrate by RPAP2 (1-334) (RPAP2 (1-334)): dephosphorylated DiFMUP in a time- and dose-dependent manner

Molecule: C[C@@H](O)[C@H](NC(=O)[C@@H]1CCCN1C(=O)[C@H](COP(=O)(O)O)NC(=O)[C@H](Cc1ccc(O)cc1)NC(=O)[C@H](COP(=O)(O)O)NC(=O)[C@@H]1CCCN1C(=O)[C@H](CO)NC(=O)[C@@H](NC(=O)[C@@H]1CCCN1C(=O)[C@H](COP(=O)(O)O)NC(=O)[C@H](Cc1ccc(O)cc1)NC(=O)[C@H](CO)NC(=O)[C@@H]1CCCN1C(=O)[C@@H](N)CO)[C@@H](C)O)C(=O)N[C@@H](CO)C(=O)N1CCC[C@H]1C(=O)N[C@@H](COP(=O)(O)O)C(=O)N[C@@H](Cc1ccc(O)cc1)C(=O)N[C@@H](CO)C(=O)O [S2,7P CTD]
- fold increase of RPRD2 CID affinity compared to S2P CTD (RPRD2 CID): remained unchanged
- fold increase of RPRD1B CID affinity compared to S2P CTD (RPRD1B CID): 2.6 fold
- fold increase of RPRD1A CID affinity compared to S2P CTD (RPRD1A CID): 1.6 fold

Molecule: O=[N+]([O-])c1ccc(OP(=O)(O)O)cc1 [pNPP, para-nitrophenylphosphate]
- phosphatase activity of RPAP2 on the substrate (RPAP2 [1]): No measurable phosphatase activity

Molecule: [O]=[V]([O-])([O-])[O-] [vanadate]
- inhibition of RPRD1A-dependent S5 dephosphorylation by RPAP2 (RPAP2 [2]): inhibited

Molecule: S5P CTD peptide
- Kd [6]: > 1 mM
- Kd [7]: > 1 mM
- Kd [8]: > 1 mM

Results, then the molecule that gave them:

- stoichiometry N [3]: 2
- stoichiometry N [4]: 2
Molecule: RPRD1B coiled-coil domain (from UniProt Q9NQG5 137-326) (domain or fragment)

- percent dimer [5]: 89.6%
Molecule: RPRD1B coiled-coil domain (solution experiments) (from UniProt Q9NQG5 137-326) (domain or fragment)

- Kd [6]: > 1 mM
- Kd [7]: > 1 mM
- Kd [8]: > 1 mM
Molecule: S2,5P CTD peptide

- fold increase of affinity compared to S2P alone [6]: 2.6 fold
- fold increase of affinity compared to S2P alone [8]: 1.6 fold
Molecule: S2,7P CTD peptide

- Kd [6]: > 1 mM
- Kd [7]: > 1 mM
- Kd [8]: > 1 mM
Molecule: S5,7P CTD peptide

- fold reduction of binding against wild type (RPRD1A CID R106A): ~27 fold
Molecule: SPSYSPTSPSYSPTSPSYS [19-mer S2P CTD peptide]
